Data reported in patent US20180217151A1.
Blank lines part the entries; values can stand above or below the substance they belong to.

Experiments:
[1] = target: CD62L antigen on human PBMCs (human) (UniProt P14151); assay: flow cytometry, human PBMCs, biotinylated Fab 1 µg/mL, SA-APC, before washing; median of control (background) 0.2
[2] = target: CD62L antigen on human PBMCs (human) (UniProt P14151); assay: flow cytometry, human PBMCs, biotinylated Fab 1 µg/mL, SA-APC, after five washing steps; enables reversible labeling: yes
[3] = target: recombinant CD62L antigen (not stated (the Fab labels human PBMCs)) (UniProt P14151); assay: SPR (Biacore), recombinant antigen (extracellular domain) immobilized by amine coupling, Fab as analyte, 1:1 binding mass transfer model
[4] = target: CD62L antigen on human PBMCs (human) (UniProt P14151); assay: flow cytometry, human PBMCs, biotinylated Fab 1 µg/mL, SA-APC, after five washing steps; median of control (background) 0.2; enables reversible labeling: yes
[5] = target: CD27 antigen on human PBMCs (human) (UniProt P26842); assay: flow cytometry, human PBMCs, biotinylated Fab, SA-APC, before washing; gate above APC about 1
[6] = target: CD27 antigen on human PBMCs (human) (UniProt P26842); assay: flow cytometry, human PBMCs, biotinylated Fab, SA-APC, after five washing steps; same gate above APC about 1
[7] = target: CD27 antigen on human PBMCs (human) (UniProt P26842); assay: flow cytometry, human PBMCs, biotinylated Fab 1 µg/mL, SA-APC, before washing; median of control (background) 0.2
[8] = target: CD27 antigen on human PBMCs (human) (UniProt P26842); assay: flow cytometry, human PBMCs, biotinylated Fab 1 µg/mL, SA-APC, after five washing steps; enables reversible labeling: no
[9] = target: recombinant CD27 antigen (not stated (the Fab labels human PBMCs)) (UniProt P26842); assay: SPR (Biacore), recombinant antigen (extracellular domain) immobilized by amine coupling, Fab as analyte, 1:1 binding mass transfer model
[10] = target: CD27 antigen on human PBMCs (human) (UniProt P26842); assay: flow cytometry, human PBMCs, biotinylated Fab 1 µg/mL, SA-APC, after five washing steps; median of control (background) 0.2; enables reversible labeling: no
[11] = target: CD4 antigen on human PBMCs (human) (UniProt P01730); assay: flow cytometry on human PBMCs, after 2 mM biotin and one washing step
[12] = target: CD4 antigen on human PBMCs (human) (UniProt P01730); assay: flow cytometry on human PBMCs, Fab multimerized with anti-Biotin-PE, before disruption
[13] = target: CD4 antigen on human PBMCs (human) (UniProt P01730); assay: flow cytometry, human PBMCs, biotinylated Fab 1 µg/mL, SA-APC, before washing; median of control (background) 0.3
[14] = target: CD4 antigen on human PBMCs (human) (UniProt P01730); assay: flow cytometry, human PBMCs, biotinylated Fab 1 µg/mL, SA-APC, after five washing steps; enables reversible labeling: yes
[15] = target: CD4 antigen on human PBMCs (human) (UniProt P01730); assay: flow cytometry, human PBMCs, biotinylated Fab, SA-APC, before washing; gate at APC about 5e1; the same gate in control C prints 0,06%-#
[16] = target: recombinant CD4 antigen (not stated (the Fab labels human PBMCs)) (UniProt P01730); assay: SPR (Biacore), recombinant antigen (extracellular domain) immobilized by amine coupling, Fab as analyte, 1:1 binding mass transfer model
[17] = target: CD4 antigen on human PBMCs (human) (UniProt P01730); assay: flow cytometry, human PBMCs, biotinylated Fab 1 µg/mL, SA-APC, after five washing steps; median of control (background) 0.3; enables reversible labeling: yes
[18] = target: CD14 antigen on human PBMCs (human) (UniProt P08571); assay: flow cytometry, human PBMCs, biotinylated Fab 1 µg/mL, SA-APC, before washing; median of control (background) 0.25
[19] = target: CD14 antigen on human PBMCs (human) (UniProt P08571); assay: flow cytometry, human PBMCs, biotinylated Fab 1 µg/mL, SA-APC, after five washing steps; enables reversible labeling: yes
[20] = target: recombinant CD14 antigen (not stated (the Fab labels human PBMCs)) (UniProt P08571); assay: SPR (Biacore), recombinant antigen (extracellular domain) immobilized by amine coupling, Fab as analyte, 1:1 binding mass transfer model
[21] = target: CD14 antigen on human PBMCs (human) (UniProt P08571); assay: flow cytometry, human PBMCs, biotinylated Fab 1 µg/mL, SA-APC, after five washing steps; median of control (background) 0.25; enables reversible labeling: yes

recombinant CD62L antigen (not stated (the Fab labels human PBMCs)), sequence (P14151 39-332): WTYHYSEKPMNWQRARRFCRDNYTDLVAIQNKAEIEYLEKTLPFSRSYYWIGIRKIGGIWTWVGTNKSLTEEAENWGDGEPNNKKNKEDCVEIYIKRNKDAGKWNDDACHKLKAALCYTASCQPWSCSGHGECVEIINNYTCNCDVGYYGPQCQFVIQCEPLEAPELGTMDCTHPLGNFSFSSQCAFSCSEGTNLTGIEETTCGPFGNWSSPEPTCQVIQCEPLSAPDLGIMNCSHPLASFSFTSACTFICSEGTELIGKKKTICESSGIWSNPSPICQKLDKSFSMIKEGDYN
CD14 antigen on human PBMCs (human), sequence (P08571 20-345): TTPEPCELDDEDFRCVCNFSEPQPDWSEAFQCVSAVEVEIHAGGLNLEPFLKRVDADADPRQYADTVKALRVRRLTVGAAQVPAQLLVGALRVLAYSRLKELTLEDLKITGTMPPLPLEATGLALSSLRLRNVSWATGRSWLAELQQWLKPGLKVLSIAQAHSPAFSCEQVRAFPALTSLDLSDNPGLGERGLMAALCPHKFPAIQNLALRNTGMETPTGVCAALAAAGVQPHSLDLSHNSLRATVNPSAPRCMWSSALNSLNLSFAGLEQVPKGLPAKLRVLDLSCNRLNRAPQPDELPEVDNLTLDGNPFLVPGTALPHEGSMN
recombinant CD14 antigen (not stated (the Fab labels human PBMCs)), sequence (P08571 20-352 limits assumed): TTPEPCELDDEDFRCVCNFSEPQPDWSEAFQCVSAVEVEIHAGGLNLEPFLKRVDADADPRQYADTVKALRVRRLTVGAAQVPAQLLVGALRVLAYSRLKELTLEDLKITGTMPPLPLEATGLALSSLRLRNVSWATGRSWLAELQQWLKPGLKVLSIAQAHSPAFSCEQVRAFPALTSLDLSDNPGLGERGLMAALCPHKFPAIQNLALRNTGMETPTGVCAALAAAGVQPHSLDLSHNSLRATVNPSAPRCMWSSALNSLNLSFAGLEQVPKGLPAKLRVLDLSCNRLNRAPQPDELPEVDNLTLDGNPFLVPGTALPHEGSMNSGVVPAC
recombinant CD27 antigen (not stated (the Fab labels human PBMCs)), sequence (P26842 20-191): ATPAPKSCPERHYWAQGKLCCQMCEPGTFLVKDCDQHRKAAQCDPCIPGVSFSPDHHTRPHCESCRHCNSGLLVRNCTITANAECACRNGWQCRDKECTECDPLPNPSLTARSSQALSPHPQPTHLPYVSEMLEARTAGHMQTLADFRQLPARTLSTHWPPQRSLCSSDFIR
CD62L antigen on human PBMCs (human), sequence (P14151 39-372): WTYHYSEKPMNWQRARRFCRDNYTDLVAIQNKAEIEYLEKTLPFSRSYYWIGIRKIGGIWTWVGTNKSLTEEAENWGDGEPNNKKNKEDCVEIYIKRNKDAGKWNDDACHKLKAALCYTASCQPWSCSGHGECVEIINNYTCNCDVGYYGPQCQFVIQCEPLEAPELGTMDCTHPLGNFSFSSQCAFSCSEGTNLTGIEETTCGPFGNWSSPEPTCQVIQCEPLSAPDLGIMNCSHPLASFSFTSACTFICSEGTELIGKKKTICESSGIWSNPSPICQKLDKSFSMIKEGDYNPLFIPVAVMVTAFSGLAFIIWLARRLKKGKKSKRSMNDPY
CD27 antigen on human PBMCs (human), sequence (P26842 20-260): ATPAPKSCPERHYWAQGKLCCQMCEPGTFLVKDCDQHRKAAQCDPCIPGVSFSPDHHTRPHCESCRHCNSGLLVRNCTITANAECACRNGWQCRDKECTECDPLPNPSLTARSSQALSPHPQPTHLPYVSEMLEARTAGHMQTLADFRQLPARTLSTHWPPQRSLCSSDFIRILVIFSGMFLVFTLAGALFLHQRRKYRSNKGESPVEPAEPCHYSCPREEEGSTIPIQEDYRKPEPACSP

median value (i) [1]: 35 | % median value of the detected label after Fab removal (before = 100%) [2]: 2.3% | Kd [3]: 110 nM | koff [3]: 0.068 s⁻¹ | kon [3]: 640000 M⁻¹ s⁻¹ | median value after Fab removal (ii) [4]: 0.82
Substance: 145/15 pFab

percent of cells in gate P1\P2\P3, column L [5]: 38.2% | percent of cells in gate P1\P2\P3, column LR [6]: 40.2% | median value (i) [7]: 9.9 | % median value of the detected label after Fab removal (before = 100%) [8]: 64% | Kd [9]: 0.96 nM | koff [9]: 0.00026 s⁻¹ | kon [9]: 270000 M⁻¹ s⁻¹ | median value after Fab removal (ii) [10]: 6.3
Substance: M-T271 pFab

median value of the PE signal after disruption with free biotin and washing [11]: 0.2 | median value of the PE signal, labeled [12]: 16.4 | median value (i) [13]: 49 | % median value of the detected label after Fab removal (before = 100%) [14]: 0.8% | percent of cells in gate P5, column L [15]: 26.9% | Kd [16]: 16 nM | koff [16]: 0.016 s⁻¹ | kon [16]: 1e+06 M⁻¹ s⁻¹ | median value after Fab removal (ii) [17]: 0.37
Substance: M-T466 pFab

median value (i) [18]: 152 | % median value of the detected label after Fab removal (before = 100%) [19]: 0.7% | Kd [20]: 330 nM | koff [20]: 0.24 s⁻¹ | kon [20]: 730000 M⁻¹ s⁻¹ | median value after Fab removal (ii) [21]: 1
Substance: TUK4 pFab
